Measurements reported in patent US20220259318A1 (Hoffmann-La Roche, published 2022).
Numbering of substitutions follows the chain as printed.

Legend:
human GPRC5D [1] = molecular target: T1, human GPRC5D (human, UniProt Q9NZD1 1-345); experiment: flow cytometry on NCI-H929 cells, assay replicate 3
T1 construct: also called G protein-coupled receptor class C group 5 member D; hu GPCR5D
Procedure: (§1) Cells were re-suspended in PBS at 0.5 Mio cells per ml. Next, 0.05 Mio cells were plated per well of a round-bottom 96-well-plate, centrifuged and supernatants were discarded. Cells were stained with zombie aqua viability stain (BioLegend #423102, pre-diluted 1:400), containing Fc blocking (BioLegend #422302, prediluted 1:400) for 20 minutes in a total volume of 50 ul per well. […] Assay plates were centrifuged and supernatants were discarded.
(§2) Thereafter, cells were resuspended by smooth vortexing and incubated for another 30 min at 4° C. in a total of 25 μl per well, containing 500 nM of the secondary antibody (aPGLALA mulG2b Alexa 647, produced inhouse) in FACS buffer. Cells were washed once and analyzed on a BD flow cytometer, equipped with FACS Diva. Binding curves and EC50 values were obtained using GraphPadPrism6. The EC50 values of assay replicate 1 correspond to the graphs shown in FIG. 25A, FIG. 25B and FIG. 25C. The EC50 values of assay replicate 2 correspond to the graphs shown in FIG. 25D, FIG. 25E and FIG. 25F. The EC50 values of assay replicate 3 correspond to the graphs shown in FIG. 25G, FIG. 25H and FIG. 25I.

human GPRC5D [2] = molecular target: T1, human GPRC5D; experiment: flow cytometry on RPMI-8226 cells, assay replicate 3
Procedure: as §1, §2

human GPRC5D [3] = molecular target: T1, human GPRC5D; experiment: flow cytometry on OPM-2 cells, assay replicate 2
Procedure: as §1, §2

human GPRC5D [4] = molecular target: T1, human GPRC5D; experiment: cell-based or functional assay
human GPRC5D [5] = molecular target: T1, human GPRC5D; experiment: flow cytometry on RPMI-8226 cells, assay replicate 1
Procedure: as §1, §2

human GPRC5D [6] = molecular target: T1, human GPRC5D; experiment: cell-based or functional assay; remark: listed apart in the source
human GPRC5D [7] = molecular target: T1, human GPRC5D; experiment: cell-based or functional assay; remark: listed apart in the source
human GPRC5D [8] = molecular target: T1, human GPRC5D; experiment: cell-based or functional assay; remark: listed apart in the source
human GPRC5D [9] = molecular target: T1, human GPRC5D; experiment: flow cytometry on OPM-2 cells, assay replicate 3
Procedure: as §1, §2

human CD3 = molecular target: T2, human CD3 (human, UniProt P07766 23-207); experiment: flow cytometry on Jurkat-NFAT cells; paragraph 550 says these values were falsely calculated by a factor of 10 (too low)
T2 construct: Expressed on Jurkat-NFAT reporter cells as part of the TCR/CD3 complex; also called hCD3; CD3 epsilon
T2 sequence (P07766 23-207 limits assumed): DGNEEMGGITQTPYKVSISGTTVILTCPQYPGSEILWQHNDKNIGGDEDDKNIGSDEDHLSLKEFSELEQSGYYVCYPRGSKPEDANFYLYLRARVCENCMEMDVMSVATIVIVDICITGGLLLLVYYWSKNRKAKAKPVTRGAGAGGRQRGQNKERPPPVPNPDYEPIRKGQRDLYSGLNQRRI
Procedure: (§3) To measure the binding to GPRC5D, we performed a flow cytometry-based binding assay on reported multiple myeloma cell lines (Lombardi et al., Molecular characterization of human multiple myeloma cell lines by integrative genomics: insights into the biology of the disease; Genes Chromosomes Cancer. 2007 March; 46(3):226-38). The cell line NCI-H929 (ATCC® CRL-9068) was cultured in RPMI 1640 with Glutamax medium (Gibco) supplemented with 10% FBS, 1× Penicillin/Streptomycin (Gibco), 1× Sodium Pyruvate (Gibco) and 50 μM beta-Mercaptoethanol (Gibco). Jurkat-NFAT reporter cells (a CD3-expressing human acute lymphatic leukemia reporter cell line with a NFAT promoter, GloResponse Jurkat NFAT-RE-luc2P, Promega #CS176501) were cultured in RPMI 1640, containing 2 g/l Glucose, 2 g/l NaHCO₃, 10% FCS, 25 mM HEPES, 2 mM L-Glutamine, 1×NEAA, 1× Sodium-pyruvate and 200 μg/ml Hygromycin B.
(§4) Flow cytometry acquisition was performed on a custom-designed BD Biosciences Fortessa and analyzed using BD Diva. EC50 values were calculated, using GraphPad Prism software.

human GPRC5D [10] = molecular target: T1, human GPRC5D; experiment: flow cytometry on RPMI-8226 cells, assay replicate 2
Procedure: as §1, §2

human GPRC5D [11] = molecular target: T1, human GPRC5D; experiment: flow cytometry on NCI-H929 cells, assay replicate 2
Procedure: as §1, §2

human GPRC5D [12] = molecular target: T1, human GPRC5D; experiment: flow cytometry on NCI-H929 cells, assay replicate 1
Procedure: as §1, §2

human GPRC5D [13] = molecular target: T1, human GPRC5D; experiment: flow cytometry on NCI-H929 cells; paragraph 550 says these values were falsely calculated by a factor of 10 (too low)
Procedure: as §3, §4

human GPRC5D [14] = molecular target: T1, human GPRC5D; experiment: flow cytometry on OPM-2 cells, assay replicate 1
Procedure: as §1, §2

BCMA [15] = molecular target: T3, BCMA (UniProt Q02223 1-184, limits assumed); experiment: cell-based or functional assay
T3 sequence (looked up): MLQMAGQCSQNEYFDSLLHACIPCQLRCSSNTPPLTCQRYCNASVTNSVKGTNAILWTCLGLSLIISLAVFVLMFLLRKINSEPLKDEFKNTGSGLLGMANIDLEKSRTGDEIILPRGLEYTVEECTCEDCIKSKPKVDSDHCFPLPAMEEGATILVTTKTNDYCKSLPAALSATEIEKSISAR

BCMA [16] = molecular target: T3, BCMA; experiment: cell-based or functional assay; remark: listed apart in the source
BCMA [17] = molecular target: T3, BCMA; experiment: cell-based or functional assay; remark: listed apart in the source
BCMA [18] = molecular target: T3, BCMA; experiment: cell-based or functional assay; remark: listed apart in the source

T1 sequence (Q9NZD1 whole entry): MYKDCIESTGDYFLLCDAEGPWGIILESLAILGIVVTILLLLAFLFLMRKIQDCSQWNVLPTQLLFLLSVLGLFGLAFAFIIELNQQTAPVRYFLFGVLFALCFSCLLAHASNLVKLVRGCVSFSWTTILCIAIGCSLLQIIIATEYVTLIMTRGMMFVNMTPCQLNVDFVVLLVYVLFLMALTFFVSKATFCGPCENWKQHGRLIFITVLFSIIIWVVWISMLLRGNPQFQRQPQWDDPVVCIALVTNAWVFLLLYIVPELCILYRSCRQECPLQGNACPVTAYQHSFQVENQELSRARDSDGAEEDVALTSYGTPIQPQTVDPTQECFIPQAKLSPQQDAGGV

B1: 5E11(VH1c + VL2b)-C122-TCB (P1AE6625) (bispecific antibody, human IgG1, kappa, L234A L235A)
light 1: EIVLTQSPGTLSLSPGERATLSCRASQSVSISGINLMNWYQQKPGQQPKLLIYHASILASGIPDRFSGSGSGTDFTLTISRLEPEDFAVYYCQQTRESPLTFGQGTRLEIKRTVAAPSVFIFPPSDRKLKSGTASVVCLLNNFYPREAKVQWKVDNALQSGNSQESVTEQDSKDSTYSLSSTLTLSKADYEKHKVYACEVTHQGLSSPVTKSFNRGEC
light 2: EVQLLESGGGLVQPGGSLRLSCAASGFQFSSYAMNWVRQAPGKGLEWVSRIRSKYNNYATYYADSVKGRFTISRDDSKNTLYLQMNSLRAEDTAVYYCVRHTTFPSSYVSYYGYWGQGTLVTVSSASVAAPSVFIFPPSDEQLKSGTASVVCLLNNFYPREAKVQWKVDNALQSGNSQESVTEQDSKDSTYSLSSTLTLSKADYEKHKVYACEVTHQGLSSPVTKSFNRGEC
heavy 1: EVQLLESGGGLVQPGGSLRLSCAASGFTFSKYAMAWVRQAPGKGLEWVASISTGGVNTYYADSVKGRFTISRDNSKNTLYLQMNSLRAEDTAVYYCATHTGDYFDYWGQGTMVTVSSASTKGPSVFPLAPSSKSTSGGTAALGCLVEDYFPEPVTVSWNSGALTSGVHTFPAVLQSSGLYSLSSVVTVPSSSLGTQTYICNVNHKPSNTKVDEKVEPKSCDKTHTCPPCPAPEAAGGPSVFLFPPKPKDTLMISRTPEVTCVVVDVSHEDPEVKFNWYVDGVEVHNAKTKPREEQYNSTYRVVSVLTVLHQDWLNGKEYKCKVSNKALGAPIEKTISKAKGQPREPQVCTLPPSRDELTKNQVSLSCAVKGFYPSDIAVEWESNGQPENNYKTTPPVLDSDGSFFLVSKLTVDKSRWQQGNVFSCSVMHEALHNHYTQKSLSLSPGK
heavy 2: not shown
notes: 2+1 TCB: LC1 (anti-GPRC5D), LC2 (anti-CD3 crossed), HC1 Fc hole, HC2 Fc knob
- EC50 (human GPRC5D [1]): ~158 nM
- EC50 (human GPRC5D [2]): 55 nM
- EC50 (human GPRC5D [3]): 75.5 nM
- AUC, activation of Jurkat-NFAT reporter cells in presence of RPMI-8226 cells (human GPRC5D [4]): 572000
- EC50 (pM), activation of Jurkat-NFAT reporter cells in presence of RPMI-8226 cells (human GPRC5D [4]): 40 pM
- EC50 (human GPRC5D [5]): 26.8 nM
- AUC, TCB-mediated tumor cell lysis, AMO-1 (human GPRC5D [6]): 8.01e+07
- AUC, TCB-mediated tumor cell lysis, IM-9 (human GPRC5D [6]): 9.27e+06
- AUC, TCB-mediated tumor cell lysis, LP-1 (human GPRC5D [6]): 1.54e+07
- AUC, TCB-mediated tumor cell lysis, NCI-H929 (human GPRC5D [6]): 1.79e+07
- EC50 (pM), activation of autologous T-cells (CD69 on CD8 T cells) with a primary MM sample (human GPRC5D [7]): 14.8 pM
- EC50 (pM), TCB-mediated tumor cell lysis, AMO-1 (human GPRC5D [8]): 8.3 pM
- EC50 (pM), TCB-mediated tumor cell lysis, IM-9 (human GPRC5D [8]): 267 pM
- EC50 (pM), TCB-mediated tumor cell lysis, LP-1 (human GPRC5D [8]): 7.99 pM
- EC50 (pM), TCB-mediated tumor cell lysis, NCI-H929 (human GPRC5D [8]): 0.597 pM
- EC50 (human GPRC5D [9]): 54.2 nM
- EC50 (human CD3): 11.5 nM
- EC50 (human GPRC5D [10]): 20.4 nM
- EC50 (human GPRC5D [11]): ~123 nM
- EC50 (human GPRC5D [12]): 75.8 nM
- EC50 (human GPRC5D [13]): 1.15 nM
- EC50 (human GPRC5D [14]): 34.5 nM

B2: BCMA-TCB (bispecific antibody, human IgG1, kappa, L234A L235A)
light 1: EIVLTQSPGTLSLSPGERATLSCRASQSVSAYYLAWYQQKPGQAPRLLMYDASIRATGIPDRFSGSGSGTDFTLTISRLEPEDFAVYYCQQYERWPLTFGQGTKVEIKRTVAAPSVFIFPPSDRKLKSGTASVVCLLNNFYPREAKVQWKVDNALQSGNSQESVTEQDSKDSTYSLSSTLTLSKADYEKHKVYACEVTHQGLSSPVTKSFNRGEC
light 2: B1 light 2 with Q28T, S31T, T102G, T103N, P105G, S106N, Y111W, Y112F, G113A
heavy 1: EVQLLESGGGLVQPGGSLRLSCAASGFTFSSYAMNWVRQAPGKGLEWVSAITASGGSTYYADSVKGRFTISRDNSKNTLYLQMNSLRAEDTAVYYCARYWPMSLWGQGTLVTVSSASTKGPSVFPLAPSSKSTSGGTAALGCLVEDYFPEPVTVSWNSGALTSGVHTFPAVLQSSGLYSLSSVVTVPSSSLGTQTYICNVNHKPSNTKVDEKVEPKSCDKTHTCPPCPAPEAAGGPSVFLFPPKPKDTLMISRTPEVTCVVVDVSHEDPEVKFNWYVDGVEVHNAKTKPREEQYNSTYRVVSVLTVLHQDWLNGKEYKCKVSNKALGAPIEKTISKAKGQPREPQVCTLPPSRDELTKNQVSLSCAVKGFYPSDIAVEWESNGQPENNYKTTPPVLDSDGSFFLVSKLTVDKSRWQQGNVFSCSVMHEALHNHYTQKSLSLSPGK
heavy 2: not shown
- AUC, TCB-mediated tumor cell lysis, AMO-1 (BCMA [15]): 4.73e+07
- AUC, TCB-mediated tumor cell lysis, IM-9 (BCMA [15]): 1.1e+07
- AUC, TCB-mediated tumor cell lysis, LP-1 (BCMA [15]): 1.11e+07
- AUC, TCB-mediated tumor cell lysis, NCI-H929 (BCMA [15]): 1.07e+07
- EC50 (pM), activation of autologous T-cells (CD69 on CD8 T cells) with a primary MM sample (BCMA [16]): 52.5 pM
- EC50 (pM), TCB-mediated tumor cell lysis, AMO-1 (BCMA [17]): 137 pM
- EC50 (pM), TCB-mediated tumor cell lysis, IM-9 (BCMA [17]): 55.7 pM
- EC50 (pM), TCB-mediated tumor cell lysis, LP-1 (BCMA [17]): 76.4 pM
- EC50 (pM), TCB-mediated tumor cell lysis, NCI-H929 (BCMA [17]): 171 pM
- EC50 in vitro killing assay, AMO-1 (BCMA [18]): 518 pM
- EC50 in vitro killing assay, EJM (BCMA [18]): 132 pM
- EC50 in vitro killing assay, L363 (BCMA [18]): 127 pM
- EC50 in vitro killing assay, MOLP-2 (BCMA [18]): 32 pM
- EC50 in vitro killing assay, NCI-H929 (BCMA [18]): 311 pM
- EC50 in vitro killing assay, OPM-2 (BCMA [18]): 33 pM
- EC50 in vitro killing assay, RPMI (BCMA [18]): 11 pM
